According to patent publication US20050003416:

T1: SolCorinPD-EK (soluble modified human corin protease domain, zymogen)
T1 sequence: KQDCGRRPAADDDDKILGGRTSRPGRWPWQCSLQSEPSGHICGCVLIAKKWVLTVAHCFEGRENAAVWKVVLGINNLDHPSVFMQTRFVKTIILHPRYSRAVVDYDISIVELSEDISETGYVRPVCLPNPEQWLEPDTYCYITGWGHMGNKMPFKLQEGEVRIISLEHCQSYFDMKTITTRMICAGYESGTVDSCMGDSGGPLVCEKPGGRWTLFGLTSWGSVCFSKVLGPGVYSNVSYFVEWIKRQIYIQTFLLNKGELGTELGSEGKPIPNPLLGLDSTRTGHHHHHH

T2: SolCorin-EK (soluble modified human corin, zymogen)
T2 sequence: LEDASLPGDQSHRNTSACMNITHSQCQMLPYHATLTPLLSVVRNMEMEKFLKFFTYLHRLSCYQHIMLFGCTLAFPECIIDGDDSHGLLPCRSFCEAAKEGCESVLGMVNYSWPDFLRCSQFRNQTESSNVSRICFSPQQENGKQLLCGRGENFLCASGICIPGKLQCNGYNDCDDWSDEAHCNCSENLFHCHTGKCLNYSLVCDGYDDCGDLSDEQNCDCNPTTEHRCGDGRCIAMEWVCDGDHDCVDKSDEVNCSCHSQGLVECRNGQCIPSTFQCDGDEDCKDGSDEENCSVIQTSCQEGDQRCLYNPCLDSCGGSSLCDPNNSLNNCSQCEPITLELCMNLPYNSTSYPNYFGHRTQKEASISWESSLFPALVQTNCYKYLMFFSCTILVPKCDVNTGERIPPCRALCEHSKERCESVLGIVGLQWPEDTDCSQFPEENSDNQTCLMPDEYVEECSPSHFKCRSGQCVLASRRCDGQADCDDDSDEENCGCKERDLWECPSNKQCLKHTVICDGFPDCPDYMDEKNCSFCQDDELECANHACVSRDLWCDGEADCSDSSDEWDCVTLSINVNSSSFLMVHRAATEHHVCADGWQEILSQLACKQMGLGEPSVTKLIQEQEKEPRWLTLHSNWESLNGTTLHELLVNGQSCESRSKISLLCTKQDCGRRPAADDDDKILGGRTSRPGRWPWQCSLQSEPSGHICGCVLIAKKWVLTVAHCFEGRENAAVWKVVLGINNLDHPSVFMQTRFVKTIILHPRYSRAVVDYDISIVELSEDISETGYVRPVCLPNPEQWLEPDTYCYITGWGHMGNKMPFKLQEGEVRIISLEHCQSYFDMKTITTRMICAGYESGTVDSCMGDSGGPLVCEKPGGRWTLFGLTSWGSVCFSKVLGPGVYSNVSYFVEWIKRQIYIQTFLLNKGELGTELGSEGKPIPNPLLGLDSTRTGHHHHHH

T3: recombinant human wild-type pro-ANP with C-terminal V5 and 6xHis tags, P01160
T3 chain: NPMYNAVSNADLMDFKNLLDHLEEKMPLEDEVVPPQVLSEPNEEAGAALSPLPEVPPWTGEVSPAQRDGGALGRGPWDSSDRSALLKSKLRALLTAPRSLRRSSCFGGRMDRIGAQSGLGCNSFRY

B1: enterokinase-activated SolCorin-EK (protein)
chain 1: LEDASLPGDQSHRNTSACMNITHSQCQMLPYHATLTPLLSVVRNMEMEKFLKFFTYLHRLSCYQHIMLFGCTLAFPECIIDGDDSHGLLPCRSFCEAAKEGCESVLGMVNYSWPDFLRCSQFRNQTESSNVSRICFSPQQENGKQLLCGRGENFLCASGICIPGKLQCNGYNDCDDWSDEAHCNCSENLFHCHTGKCLNYSLVCDGYDDCGDLSDEQNCDCNPTTEHRCGDGRCIAMEWVCDGDHDCVDKSDEVNCSCHSQGLVECRNGQCIPSTFQCDGDEDCKDGSDEENCSVIQTSCQEGDQRCLYNPCLDSCGGSSLCDPNNSLNNCSQCEPITLELCMNLPYNSTSYPNYFGHRTQKEASISWESSLFPALVQTNCYKYLMFFSCTILVPKCDVNTGERIPPCRALCEHSKERCESVLGIVGLQWPEDTDCSQFPEENSDNQTCLMPDEYVEECSPSHFKCRSGQCVLASRRCDGQADCDDDSDEENCGCKERDLWECPSNKQCLKHTVICDGFPDCPDYMDEKNCSFCQDDELECANHACVSRDLWCDGEADCSDSSDEWDCVTLSINVNSSSFLMVHRAATEHHVCADGWQEILSQLACKQMGLGEPSVTKLIQEQEKEPRWLTLHSNWESLNGTTLHELLVNGQSCESRSKISLLCTKQDCGRRPAADDDDK
chain 2: ILGGRTSRPGRWPWQCSLQSEPSGHICGCVLIAKKWVLTVAHCFEGRENAAVWKVVLGINNLDHPSVFMQTRFVKTIILHPRYSRAVVDYDISIVELSEDISETGYVRPVCLPNPEQWLEPDTYCYITGWGHMGNKMPFKLQEGEVRIISLEHCQSYFDMKTITTRMICAGYESGTVDSCMGDSGGPLVCEKPGGRWTLFGLTSWGSVCFSKVLGPGVYSNVSYFVEWIKRQIYIQTFLLNKGELGTELGSEGKPIPNPLLGLDSTRTGHHHHHH
B2: enterokinase-activated SolCorinPD-EK (protein)
chain 1: KQDCGRRPAADDDDK
chain 2: B1 chain 2

What was measured:
[1] = tested on: T1, SolCorinPD-EK (soluble modified human corin protease domain, zymogen)
[2] = tested on: T2, SolCorin-EK (soluble modified human corin, zymogen)
[3] = biological target: T3, recombinant human wild-type pro-ANP …

Molecule	cleavage of soluble corin by 0, 2, 10, 20 or 40 units enterokinase, 25 C, 4 hrs (anti-V5 Western blot) [1]	cleavage of soluble corin by 0, 2, 10, 20 or 40 units enterokinase, 25 C, 4 hrs (anti-V5 Western blot) [2]	processing of pro-ANP to ANP in mixed conditioned media, 4 C, 3 hours (anti-V5 immunoprecipitation and Western blot) [3]
purified enterokinase (Calbiochem)	both the long form (SolCorin-EK) and short form (SolCorinPD-EK) of soluble modified human corin were cleaved by exposure to enterokinase in a dose-dependent manner	both the long form (SolCorin-EK) and short form (SolCorinPD-EK) of soluble modified human corin were cleaved by exposure to enterokinase in a dose-dependent manner	
B1			pro-ANP was processed to ANP by the long form (SolCorin-EK), but not the short form (SolCorin-PD-EK), of soluble modified human corin upon activation by enterokinase in vitro
B2			pro-ANP was processed to ANP by the long form (SolCorin-EK), but not the short form (SolCorin-PD-EK), of soluble modified human corin upon activation by enterokinase in vitro
